Values of other authors, collected in publication PMC6767261.

Biological target: Endothelin receptor type B (UniProt P24530)
Assay: radioligand

Sequence of UniProt P24530 (P24530 27-442): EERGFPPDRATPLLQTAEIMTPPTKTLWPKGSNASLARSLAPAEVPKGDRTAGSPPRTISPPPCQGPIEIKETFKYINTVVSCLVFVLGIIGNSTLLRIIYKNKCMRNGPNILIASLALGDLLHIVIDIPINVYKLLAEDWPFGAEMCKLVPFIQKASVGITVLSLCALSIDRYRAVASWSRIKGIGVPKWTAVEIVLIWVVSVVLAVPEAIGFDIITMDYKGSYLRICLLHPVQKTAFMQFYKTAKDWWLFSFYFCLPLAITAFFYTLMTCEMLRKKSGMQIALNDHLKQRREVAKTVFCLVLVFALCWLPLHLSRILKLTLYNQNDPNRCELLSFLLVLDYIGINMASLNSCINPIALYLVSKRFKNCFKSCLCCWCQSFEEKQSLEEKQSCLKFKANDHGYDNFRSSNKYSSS

Substance	Kd
Endothelin-1 ([125I]-ET-1), ciliary epithelium (from UniProt P05305)	54.5 nM
Endothelin-1 ([125I]-ET-1), ciliary muscle (from UniProt P05305)	142 nM
